# The supplement of paper PMC10065799, “High-throughput profiling of sequence recognition by tyrosine kinases and SH2 domains using bacterial peptide display” (eLife, 2023)
# Test system: c-Src
# Assay: phosphorylation enrichment, bacterial display (enrichment ratio); higher = better substrate or ligand; peptides without Tyr show the background
# 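Wherever SH2 binding enrichment of the phosphorylated peptide, bacterial display is given: peptide library displayed on the E. coli surface as eCPX fusions, selected cells deep-sequenced, score is each peptide's frequency after selection divided by its frequency in the input.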
# 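Wherever phosphorylation enrichment, bacterial display is given: 11-residue human phosphosite peptides and single-mutation variants displayed on the E. coli surface, counted by deep sequencing, each peptide's frequency after selection divided by its frequency in the unselected input library; frequency after pTyr selection over input frequency; kinase dosed for 20-30% of maximal phosphorylation in three min.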
row,Sequence,phosphorylation enrichment
1,AYGGGYGGVLT [KRT19_Y65],0.573
2,RPAFTYATLIR [FOXP3_Y342_P339A],6.49
3,KTAFSYTSSST [SIM1_Y356_P352T],0.432
4,HFPFQYHRQLY [F12_Y53],0.471
5,EIEFLYNENMV [IARS1_Y680_T684M],0.421
6,VVTGLYEKPSL [KIR3DS1_Y221],1.05
7,CFCSWYRGWAP [TIMP3_Y195_G190C_YF],4.5
8,VMSGPYNLKAL [IL1B_Y140_E141N],0.758
9,PLLEFYRDIFT [CDAN1_Y713_YF],0.816
10,KFANSYIMEPL [TCTE3_Y87_R88I],0.712
11,PADRAYSWYQH [NDST1_Y711],1.77
12,RELGKYGLQAF [ALDH2_Y497_E496K_YF],0.491
13,SLGKGYFDGGC [MC4R_Y35_S36Y_YF],0.481
14,RLLVVYPGTQR [HBB_Y36_W38G],0.48
15,GPIFRYDLGGA [CYP11B1_Y81],0.394
16,TCFDKYTGNTY [FN1_Y101],0.584
17,KFDLMYAKRAF [TUBA1A_Y399],0.409

row,Sequence,phosphorylation enrichment
1,IMITGYLLLFR [INSR_Y87_D86G],0.419
2,SVVVPYEPPVV [TP53_Y220_E224V],0.437
3,GVTLLYYGRYN [ADGRD1_Y85],3.17
4,EEVGIYRVSGV [BCR_Y1089],4.45
5,PVQAAYQKLVA [HBB_Y131_V134L],0.499
6,VKGGAYYPVTV [MCCC2_Y145],0.445
7,ANQDDHISFRH [IMP4_Y226_Y226H],0.611
8,GDNSIYVTKII [DLG1_Y349],0.768
9,GFPVHYTGVSN [DNMT3B_Y815_D817G],0.358
10,IFLENYNAGTY [CFI_Y421_H418L],0.687
11,GAPATYKGDAR [CACNA1A_Y1013_E1014K],0.401
12,GYSRHYEDGYP [CTNND1_Y217],0.488
13,YPLAEYTEVKT [ALDH1A3_Y497_A493P],0.444
14,TTHRGYDSDNP [MMUT_Y146_A141T],0.389
15,PLQKTYNFNVL [SLC4A1_Y553_YF],0.43
16,VQSASYLNACL [MCM3AP_Y864],0.495

# Target: Grb2 SH2 (UniProt P62993)
# Assay: SH2 binding enrichment of the phosphorylated peptide, bacterial display (enrichment ratio); higher = better substrate or ligand; peptides without Tyr show the background
# Sequence of Grb2 SH2 (P62993 whole entry, looked up): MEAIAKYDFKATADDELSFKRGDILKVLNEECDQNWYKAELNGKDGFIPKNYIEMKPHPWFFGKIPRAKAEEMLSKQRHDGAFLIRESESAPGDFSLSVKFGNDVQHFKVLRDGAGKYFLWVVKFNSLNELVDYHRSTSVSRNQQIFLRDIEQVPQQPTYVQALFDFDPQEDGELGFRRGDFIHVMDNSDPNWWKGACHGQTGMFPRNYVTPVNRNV
row,Sequence,SH2 binding enrichment
1,AYGGGYGGVLT [KRT19_Y65],0.623
2,RPAFTYATLIR [FOXP3_Y342_P339A],1.66
3,KTAFSYTSSST [SIM1_Y356_P352T],0.87
4,HFPFQYHRQLY [F12_Y53],1.27
5,EIEFLYNENMV [IARS1_Y680_T684M],0.727
6,VVTGLYEKPSL [KIR3DS1_Y221],0.722
7,CFCSWYRGWAP [TIMP3_Y195_G190C_YF],1.17
8,VMSGPYNLKAL [IL1B_Y140_E141N],0.886
9,PLLEFYRDIFT [CDAN1_Y713_YF],0.857
10,KFANSYIMEPL [TCTE3_Y87_R88I],0.91
11,PADRAYSWYQH [NDST1_Y711],0.747
12,RELGKYGLQAF [ALDH2_Y497_E496K_YF],0.834
13,SLGKGYFDGGC [MC4R_Y35_S36Y_YF],0.838
14,RLLVVYPGTQR [HBB_Y36_W38G],1.48
15,GPIFRYDLGGA [CYP11B1_Y81],0.97
16,TCFDKYTGNTY [FN1_Y101],0.924
17,KFDLMYAKRAF [TUBA1A_Y399],0.802

row,Sequence,SH2 binding enrichment
1,IMITGYLLLFR [INSR_Y87_D86G],2.37
2,SVVVPYEPPVV [TP53_Y220_E224V],0.709
3,GVTLLYYGRYN [ADGRD1_Y85],1.28
4,EEVGIYRVSGV [BCR_Y1089],0.732
5,PVQAAYQKLVA [HBB_Y131_V134L],0.659
6,VKGGAYYPVTV [MCCC2_Y145],0.955
7,ANQDDHISFRH [IMP4_Y226_Y226H],1.02
8,GDNSIYVTKII [DLG1_Y349],0.878
9,GFPVHYTGVSN [DNMT3B_Y815_D817G],0.878
10,IFLENYNAGTY [CFI_Y421_H418L],0.937
11,GAPATYKGDAR [CACNA1A_Y1013_E1014K],1.09
12,GYSRHYEDGYP [CTNND1_Y217],0.818
13,YPLAEYTEVKT [ALDH1A3_Y497_A493P],1.22
14,TTHRGYDSDNP [MMUT_Y146_A141T],1.02
15,PLQKTYNFNVL [SLC4A1_Y553_YF],1.11
16,VQSASYLNACL [MCM3AP_Y864],1.11

# Target: SHP2-C SH2
# Assay: as above
row,Sequence,SH2 binding enrichment
1,AYGGGYGGVLT [KRT19_Y65],0.614
2,RPAFTYATLIR [FOXP3_Y342_P339A],7.65
3,KTAFSYTSSST [SIM1_Y356_P352T],0.717
4,HFPFQYHRQLY [F12_Y53],2.15
5,EIEFLYNENMV [IARS1_Y680_T684M],0.882
6,VVTGLYEKPSL [KIR3DS1_Y221],0.461
7,CFCSWYRGWAP [TIMP3_Y195_G190C_YF],1.24
8,VMSGPYNLKAL [IL1B_Y140_E141N],0.622
9,PLLEFYRDIFT [CDAN1_Y713_YF],0.966
10,KFANSYIMEPL [TCTE3_Y87_R88I],0.715
11,PADRAYSWYQH [NDST1_Y711],0.47
12,RELGKYGLQAF [ALDH2_Y497_E496K_YF],0.503
13,SLGKGYFDGGC [MC4R_Y35_S36Y_YF],0.704
14,RLLVVYPGTQR [HBB_Y36_W38G],1.27
15,GPIFRYDLGGA [CYP11B1_Y81],0.859
16,TCFDKYTGNTY [FN1_Y101],0.754
17,KFDLMYAKRAF [TUBA1A_Y399],0.548

row,Sequence,SH2 binding enrichment
1,IMITGYLLLFR [INSR_Y87_D86G],1.83
2,SVVVPYEPPVV [TP53_Y220_E224V],0.627
3,GVTLLYYGRYN [ADGRD1_Y85],1.24
4,EEVGIYRVSGV [BCR_Y1089],0.521
5,PVQAAYQKLVA [HBB_Y131_V134L],0.764
6,VKGGAYYPVTV [MCCC2_Y145],0.8
7,ANQDDHISFRH [IMP4_Y226_Y226H],0.512
8,GDNSIYVTKII [DLG1_Y349],0.661
9,GFPVHYTGVSN [DNMT3B_Y815_D817G],2.09
10,IFLENYNAGTY [CFI_Y421_H418L],0.777
11,GAPATYKGDAR [CACNA1A_Y1013_E1014K],1.17
12,GYSRHYEDGYP [CTNND1_Y217],0.676
13,YPLAEYTEVKT [ALDH1A3_Y497_A493P],0.869
14,TTHRGYDSDNP [MMUT_Y146_A141T],0.595
15,PLQKTYNFNVL [SLC4A1_Y553_YF],0.633
16,VQSASYLNACL [MCM3AP_Y864],0.694

# Target: c-Src SH2
# Assay: as above
row,Sequence,SH2 binding enrichment
1,AYGGGYGGVLT [KRT19_Y65],0.401
2,RPAFTYATLIR [FOXP3_Y342_P339A],1.42
3,KTAFSYTSSST [SIM1_Y356_P352T],0.537
4,HFPFQYHRQLY [F12_Y53],1.28
5,EIEFLYNENMV [IARS1_Y680_T684M],0.592
6,VVTGLYEKPSL [KIR3DS1_Y221],0.859
7,CFCSWYRGWAP [TIMP3_Y195_G190C_YF],1.09
8,VMSGPYNLKAL [IL1B_Y140_E141N],0.545
9,PLLEFYRDIFT [CDAN1_Y713_YF],0.473
10,KFANSYIMEPL [TCTE3_Y87_R88I],0.583
11,PADRAYSWYQH [NDST1_Y711],0.753
12,RELGKYGLQAF [ALDH2_Y497_E496K_YF],0.438
13,SLGKGYFDGGC [MC4R_Y35_S36Y_YF],0.555
14,RLLVVYPGTQR [HBB_Y36_W38G],1.05
15,GPIFRYDLGGA [CYP11B1_Y81],0.518
16,TCFDKYTGNTY [FN1_Y101],0.472
17,KFDLMYAKRAF [TUBA1A_Y399],0.444

row,Sequence,SH2 binding enrichment
1,IMITGYLLLFR [INSR_Y87_D86G],0.899
2,SVVVPYEPPVV [TP53_Y220_E224V],0.606
3,GVTLLYYGRYN [ADGRD1_Y85],1.05
4,EEVGIYRVSGV [BCR_Y1089],0.491
5,PVQAAYQKLVA [HBB_Y131_V134L],0.709
6,VKGGAYYPVTV [MCCC2_Y145],0.715
7,ANQDDHISFRH [IMP4_Y226_Y226H],0.502
8,GDNSIYVTKII [DLG1_Y349],0.36
9,GFPVHYTGVSN [DNMT3B_Y815_D817G],1.06
10,IFLENYNAGTY [CFI_Y421_H418L],0.668
11,GAPATYKGDAR [CACNA1A_Y1013_E1014K],0.483
12,GYSRHYEDGYP [CTNND1_Y217],1.46
13,YPLAEYTEVKT [ALDH1A3_Y497_A493P],1.78
14,TTHRGYDSDNP [MMUT_Y146_A141T],0.413
15,PLQKTYNFNVL [SLC4A1_Y553_YF],0.53
16,VQSASYLNACL [MCM3AP_Y864],0.555
